Measurements as given in publication PMC2600743 (The Journal of Cell Biology, 2008).
Values belong to the molecule of their own block, whether it stands above or below them.

Legend:
[1] = target: MBD-ank (Table II; ankB or ankG not said) membrane-binding domain; test: SPR, GST-Nav1.2 captured on chip; settings: reference: wild type, CK2-treated; sites S1124,S1126
[2] = target: ankyrin G (MBD-ankG) membrane-binding domain, 1–981 (UniProt O70511); test: SPR, GST-Nav1.2 captured on chip; settings: reference: untreated immobilized fragment; sites S1112,S1123,S1124,S1126
[3] = target: ankyrin B (MBD-ankB) membrane-binding domain, 1–957 (UniProt Q01484); test: SPR, GST-Nav1.2 captured on chip; settings: reference: untreated immobilized fragment; sites S1112,S1123,S1124,S1126
[4] = target: T1, MBD-ankB (membrane-binding domain of human 220-kD ankyrin B, amino acids 1–957) (human, UniProt Q01484-2 1-957); test: SPR
T1 sequence (looked up): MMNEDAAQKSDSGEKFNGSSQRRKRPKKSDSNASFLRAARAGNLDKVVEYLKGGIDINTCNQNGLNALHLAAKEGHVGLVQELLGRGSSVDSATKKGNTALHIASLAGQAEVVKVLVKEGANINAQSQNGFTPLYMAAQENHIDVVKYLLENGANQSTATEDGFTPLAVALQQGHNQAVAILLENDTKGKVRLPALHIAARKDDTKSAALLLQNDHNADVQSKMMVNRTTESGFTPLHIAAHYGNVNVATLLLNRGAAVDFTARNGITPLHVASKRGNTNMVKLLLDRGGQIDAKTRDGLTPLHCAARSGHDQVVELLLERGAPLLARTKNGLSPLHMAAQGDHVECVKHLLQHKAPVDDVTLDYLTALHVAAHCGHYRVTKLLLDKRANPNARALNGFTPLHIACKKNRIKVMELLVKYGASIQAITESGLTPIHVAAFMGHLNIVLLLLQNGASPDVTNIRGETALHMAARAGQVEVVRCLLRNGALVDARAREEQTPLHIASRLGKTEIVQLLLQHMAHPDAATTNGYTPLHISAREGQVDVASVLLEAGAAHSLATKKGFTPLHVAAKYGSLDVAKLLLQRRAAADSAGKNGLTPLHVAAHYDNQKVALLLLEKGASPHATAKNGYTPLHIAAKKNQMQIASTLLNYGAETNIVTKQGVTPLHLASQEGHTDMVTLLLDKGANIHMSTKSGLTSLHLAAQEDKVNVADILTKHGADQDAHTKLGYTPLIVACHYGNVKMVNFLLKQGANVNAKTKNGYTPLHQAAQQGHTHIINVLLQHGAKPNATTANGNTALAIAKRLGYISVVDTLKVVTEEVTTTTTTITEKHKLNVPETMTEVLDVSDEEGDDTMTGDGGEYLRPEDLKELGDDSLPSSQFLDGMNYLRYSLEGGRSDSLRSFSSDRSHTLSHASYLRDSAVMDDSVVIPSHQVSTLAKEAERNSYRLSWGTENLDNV

[5] = target: T2, MBD-ankG (membrane-binding domain of rat 270-kD ankyrin G, amino acids 1–981) (rat, UniProt O70511 1-981); test: SPR
T2 sequence (looked up): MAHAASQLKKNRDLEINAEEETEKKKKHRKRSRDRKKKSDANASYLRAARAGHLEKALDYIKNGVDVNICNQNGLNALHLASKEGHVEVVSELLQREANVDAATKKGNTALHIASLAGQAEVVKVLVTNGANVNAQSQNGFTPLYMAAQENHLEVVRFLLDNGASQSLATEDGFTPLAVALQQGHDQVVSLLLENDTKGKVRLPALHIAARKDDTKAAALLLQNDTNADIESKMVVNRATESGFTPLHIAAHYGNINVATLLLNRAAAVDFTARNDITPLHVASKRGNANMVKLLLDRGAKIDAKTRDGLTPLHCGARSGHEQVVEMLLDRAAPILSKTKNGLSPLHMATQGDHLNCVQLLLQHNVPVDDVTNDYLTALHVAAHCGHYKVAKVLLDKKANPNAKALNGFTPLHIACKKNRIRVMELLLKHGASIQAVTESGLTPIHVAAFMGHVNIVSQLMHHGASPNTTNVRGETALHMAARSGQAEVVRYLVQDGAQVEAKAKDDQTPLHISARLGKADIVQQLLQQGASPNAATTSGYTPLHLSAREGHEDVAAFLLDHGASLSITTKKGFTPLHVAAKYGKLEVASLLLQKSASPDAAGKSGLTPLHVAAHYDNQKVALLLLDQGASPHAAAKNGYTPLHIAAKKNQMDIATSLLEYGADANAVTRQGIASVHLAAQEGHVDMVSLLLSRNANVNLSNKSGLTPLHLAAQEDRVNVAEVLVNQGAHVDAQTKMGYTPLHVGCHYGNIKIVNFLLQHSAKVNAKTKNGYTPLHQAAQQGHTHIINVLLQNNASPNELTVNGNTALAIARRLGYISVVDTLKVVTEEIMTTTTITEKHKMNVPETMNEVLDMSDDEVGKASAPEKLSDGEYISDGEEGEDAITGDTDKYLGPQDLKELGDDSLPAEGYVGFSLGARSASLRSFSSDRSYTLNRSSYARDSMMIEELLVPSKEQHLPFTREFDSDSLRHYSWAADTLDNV

- KD [1]: weaker; reference 1.2 10−9
Molecule: Nav1.2 1,080–1,203 (from UniProt P04775) S1124-26A, CK2-treated

- KD [2]: stronger; reference 1.7 ± 0.5 × 10−6
- KD [3]: stronger; reference 1.2 ± 0.4 × 10−6
Molecule: Nav1.2 1,080–1,203 (from UniProt P04775) phosphorylated on chip with CK2

- KD [3]: stronger; reference 1.3 ± 0.2 × 10−6
Molecule: Nav1.2 989–1,133 (from UniProt P04775) phosphorylated on chip with CK2

- Kd [4]: 1300 nM
B1: GST-Nav1.2 989–1,133 (domain or fragment, UniProt P04775 989-1133, looked up)
chain: DNLAATDDDNEMNNLQIAVGRMQKGIDFVKRKIREFIQKAFVRKQKALDEIKPLEDLNNKKDSCISNHTTIEIGKDLNYLKDGNGTTSGIGSSVEKYVVDESDYMSFINNPSLTVTVPIALGESDFENLNTEEFSSESDMEESKE

- Kd [4]: 1200 nM
- Kd [5]: 1700 nM
B2: GST-Nav1.2 1,080–1,203 (domain or fragment, UniProt P04775 1080-1203, looked up)
chain: SSVEKYVVDESDYMSFINNPSLTVTVPIALGESDFENLNTEEFSSESDMEESKEKLNATSSSEGSTVDIGAPAEGEQPEAEPEESLEPEACFTEDCVRKFKCCQISIEEGKGKLWWNLRKTCYK
